This note sets out measurements from patent US20110195067A1.

In the assay the target is FcγRIII (CD16) (human) (UniProt P08637). Description: cell-based or functional assay.
Sequence of FcγRIII (CD16) (human) (P08637 17-254): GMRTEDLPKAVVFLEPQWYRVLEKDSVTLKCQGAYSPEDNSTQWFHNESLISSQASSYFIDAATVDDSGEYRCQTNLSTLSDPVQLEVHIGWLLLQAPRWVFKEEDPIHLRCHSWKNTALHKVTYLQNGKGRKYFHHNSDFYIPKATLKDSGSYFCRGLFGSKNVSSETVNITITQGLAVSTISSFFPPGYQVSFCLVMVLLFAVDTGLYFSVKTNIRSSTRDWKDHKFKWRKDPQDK

Consider heat aggregated IgG, for which the IFN-γ secretion from PBMC, aggregated IgG (40 µg/ml) + IL-2 was 13 ng/mL; the TNF-α secretion from PBMC, aggregated IgG (40 µg/ml) + IL-2 is 2.46 ng/mL; the fold induction of PBMC proliferation over IL-2, 125 µg/mL of AIG was determined as 16 fold; the proliferative response of PBMC, 125 µg/mL of AIG and IL-2 is 17400 CPM.

For “anti-CD16 mAb 3G8 (Caltag Laboratories) (antibody)”, the IFN-γ secretion from PBMC, immobilized 3G8 (10 µg/ml) + IL-2 is 9.85 ng/mL; the TNF-α secretion from PBMC, immobilized 3G8 (10 µg/ml) + IL-2 amounted to 3.32 ng/mL; the proliferative response of PBMC ([methyl-3H] thymidine), IL-2 and immobilized anti-CD16 mAb was found to be 15500 CPM; the proliferative response of PBMC ([methyl-3H] thymidine), immobilized anti-CD16 mAb alone came out at 592 CPM.
